Like-named read-outs stand apart in the source and are kept apart here.
Parameters: species or system Rats
Settings: rat, in vivo

Compound | Mean peak serum interferon concentration (50 mg/kg) | Mean peak serum interferon concentration (1 mg/kg) | Mean peak serum interferon concentration (po, 1 mg/kg)
O=C(O)CCCc1ccc(NC(=O)COc2ccccc2)cc1 [Compound 9, 4-(4-(phenoxyacetyl)aminophenyl)butyric acid] | 2611±695 | – | –
interferon | – | 79±100 | 1951±1857
